B1: SEQID-00609: protein of the 168 nutritive polypeptide library (protein, listed as Saccharomyces cerevisiae)
chain: MSNPFDLLGNDVEDADVVVLPPKEIVKSNTSSKKADVPPPSADPSKARKNRPRPSGNEGAIRDKTAGRRNNRSKDVTDSATTKKSNTRRATDRHSRTGKTDTKKKVNQGWGDDKKELSAEKEAQADAAAEIAEDAAEAEDAGKPKTAQLSLQDYLNQQANNQFNKVPEAKKVELDAERIETAEKEAYVPATKVKNVKSKQLKTKEYLEFDATFVESNTRKNFGDRNNNSRNNFNNRRGGRGARKGNNTANATNSANTVQKNRNIDVSNLPSLA
modifications: source: /note="strain ATCC 204508 / S288c"
notes: protein of the 168 nutritive polypeptide library
B2: SEQID-00607: protein of the 168 nutritive polypeptide library (protein)
chain: MALQDDWQQSHLERRQVLAESQKQIWATIGLWQRERYSQAITQKQDRQAFVSQLKQENQAFLADAHNNHRQQAEQLAEDLKEFVRSLQKETATFLEESAQSRAEKAEELAQELRDFRAELRDTVAQWQQQWQQQDQERAAGRRKLAQQVQGDLQEFNIIRTIMAEKLLQQTQEAKAERLAGIQSMFEDMGKFRMQLQEYRREREKSVWGGERVKSTPATPQKAKASQTLVPQTKPKAVKSAPSTTTAAQSTTPTAVVVAEPTKPAVPPNQPKPTTVVPHPPNPG
modifications: Arthrospira platensis C1
notes: as for B1
B3: SEQID-00612: protein of the 168 nutritive polypeptide library (protein, listed as Oryza sativa)
chain: MICLRAAFPLTSSPLRRLALKPSSSRAAAAAMSSAIAAPVEHIVLIKVRPEAASSGAAAAMVSSLQALSTAVPGLSYIHVGPVLRLRSPAAEALGPTHVLHSRYATKPDLAAYAAHPAHVAAVQGHVLPNALDSTAIDWVNAALVPSPVNPGSAVRLSLAKLKEGVEAHQLAEKLAAATAAAGEAKGAKVSFGENFSPARAKGYQFGMVAVFDSVEGLDAVDGDGKVEAAKAIVRPLLDDVLELEFVVGPAAAEAPAPANL
modifications: source: /note="subsp. japonica"
notes: as for B1
B4: SEQID-00617: protein of the 168 nutritive polypeptide library (protein)
chain: MNKEQLVQETSIKAGVTKKQADAIISAICECIMDAVADGEKVTLVGFGSFEARHRKAREGRNPSTGQPMTIPATTVPAFSAGKAFKERVANESNENVA
modifications: Arthrospira platensis NIES-39
notes: as for B1
B5: SEQID-00613: protein of the 168 nutritive polypeptide library (protein)
chain: MGLFDRIGRVVRANLNDLVNKAEDPEKILEQAVIEMQEDLIQLRQAVAQTIAQQKRSQQQYNQAQSQANQWQSRAQLALQKGDENLAREALQRKKGYLETANTLEISLRQQTEQVETLKRNLVSLESKISEAKTKKNMLKARAQAAKANEQLNNVLGGINTSSATSVFERMEEKVMIQEAKSQAAAELMGSGLEEQFRALEEGSDVDDELAAMKAQLAGAPANQPQLSPSAPTDSSTSNPEIDNELEELRRELNK
modifications: Arthrospira platensis C1
notes: as for B1
B6: SEQID-00602: protein of the 168 nutritive polypeptide library (protein, listed as Lactobacillus acidophilus)
chain: MKSYMKKIAAVVAVAGVALSTAACSNGGSNSTVASYKGGKITQQQYYDEMKKSQAGKSTLANMIINRALEQQYGKYVSSKKVDKQYNNYKKQYGSQFSAVLQQNGMTASSFKENLKTNLLSEQALKHIKKISKKQEQQAWKSYQPKVTVQHILVAKKSTAQSIIKQLKDGKSFKSLAKKYSLDTATKNKAGKLPAFDSTDNTLDSSFKTAAFKLKTGEVTSTPVKSQSGYHVIKMISHPAKGKFADHKKAIDDEIYASMAQDQATMKDVISTVLKRADVSIKDSDLKDVLASYVSTTSATK
modifications: source: /note="strain 30SC"
notes: as for B1

Experiment: SGF digest of 168 nutritive polypeptide library, intact protein by LC-MS/MS
Format: in vitro ADME
Details: 168 nutritive polypeptide library SGF digest, LC-MS/MS spectral counts
Protocol: The in vitro intact half-life of multiple polypeptides in a complex mixture was determined using the simulated gastric in vitro digestion described above. Briefly, the 168 nutritive polypeptide library was generated as described herein by cloning, transforming, and expressing a gene library encoding 168 proteins as a single mixture. The recombinantly expressed proteins were purified from host cell proteins by IMAC purification as described herein.
The 168 Protein Library was treated with SGF as described above and the t=0 and t=10 min samples were analyzed for intact protein by LC-MS/MS. To begin, 10 μg of sample was loaded onto a 10% SDS-PAGE gel (Invitrogen) and run approximately 5 cm into the gel. The gel was excised into ten fractions from 100 kD to the dye front and the gel slices were processed by washing with 25 mM ammonium bicarbonate, followed by acetonitrile. Gel fractions were then reduced with 10 mM dithiothreitol at 60° C., followed by alkylation with 50 mM iodoacetamide at room temperature. Finally, the samples were digested with trypsin (Promega) at 37° C. for 4 h and the digestions were quenched with the addition of formic acid. The samples were then analyzed by nano LC/MS/MS using an EasynLC 1000 HPLC system interfaced to a ThermoFisher Q Exactive. Peptides were loaded on a trapping column and eluted over a 75 μm analytical column at 350 nL/min; both columns were packed with PepMap C18 3 μm resin (ThemoFisher). A 1 hour gradient was employed. The mass spectrometer was operated in data-dependent mode, with MS and MS/MS performed in the Orbitrap at 70,000 FWHM resolution and 17,500 FWHM resolution, respectively. The fifteen most abundant ions were selected for MS/MS. Data were searched against an appropriate database using Mascot to identify peptides. Mascot DAT files were parsed into the Scaffold software for validation, filtering and to create a nonredundant list per sample. Data were filtered at 1% protein and peptide false discovery rate (FDR) and requiring at least two unique peptides per protein. A full list of detected proteins and their spectral counts (SpC) was generated and reported as a function of each collected gel fraction. SpC are a count of the number of spectra identified for a given protein and are used as a measure of relative protein abundance (Liu, H. et al., Analytical Chemistry 2004, 76: 4193-4201). To calculate the percentage of intact protein remaining at the 10 min time point of the SGF digest the number of SpC representative of intact peptide in the t=10 min sample were divided by the number of SpC representative of intact peptide in the t=0 min sample. The number of SpC representative of intact peptide was defined as the sum of the SpC in the fraction with the highest number of SpC assigned to that protein in the t=0 min sample and the two flanking fractions.
With B1 the “% Intact Protein at 10 min” value was 0%. With B2 the “% Intact Protein at 10 min” value was 0%. In the case of B3, the “% Intact Protein at 10 min” value is reported as 0%. In the case of B4, the “% Intact Protein at 10 min” value is reported as 43.9%. In the case of B5, the “% Intact Protein at 10 min” value is reported as 0%. In the case of B6, the “% Intact Protein at 10 min” value is reported as 0%.

Source: patent US20160228506A1, “Compositions and Formulations for Prevention and Reduction of Tumorigenesis, Cancer Cell Proliferation and Invasion, and Methods of Production and Use Thereof in Cancer Treatment” (PRONUTRIA, INC., priority 2013, published 2016)
